Measurements as given in publication PMC9592559 (Structure(London, England:1993), 2022).

Target: the molecule itself
Test: SEC; analytical gel filtration of TOP2B (45–444) in the presence and absence of AMPPNP

B1: human TOP2B ATPase domain (45–444) (domain or fragment, UniProt Q02880-2 45-444, looked up)
chain: SVERVYQKKTQLEHILLRPDTYIGSVEPLTQFMWVYDEDVGMNCREVTFVPGLYKIFDEILVNAADNKQRDKNMTCIKVSIDPESNIISIWNNGKGIPVVEHKVEKVYVPALIFGQLLTSSNYDDDEKKVTGGRNGYGAKLCNIFSTKFTVETACKEYKHSFKQTWMNNMMKTSEAKIKHFDGEDYTCITFQPDLSKFKMEKLDKDIVALMTRRAYDLAGSCRGVKVMFNGKKLPVNGFRSYVDLYVKDKLDETGVALKVIHELANERWDVCLTLSEKGFQQISFVNSIATTKGGRHVDYVVDQVVGKLIEVVKKKNKAGVSVKPFQVKNHIWVFINCLIENPTFDSQTKENMTLQPKSFGSKCQLSEKFFKAASNCGIVESILNWVKFKAQTQLNKKCS
notes: Cloned by LIC into the pET His6 MBP Asn10 TEV LIC vector (1C), Addgene plasmid 29654; The models hold residues 46–429 (7QFO), 47–422 (7QFN) and 45–422 (7ZBG); not shown: His6, N-terminal, cleaved; MBP, N-terminal, cleaved
- stoichiometry N: 2
